{
  "source": "patent US9176064B2",
  "about": "“Bisubstrate fluorescent probes for protein kinase CK2” (University of Tartu, priority 2012, dated 2015)",
  "assay_in_all_cases": "Kinase panel residual activity",
  "format_in_all_cases": "biochemical",
  "settings_in_all_cases": "compound at 1 micromolar",
  "key": {"TrkA": {"molecular_target": "TrkA (Homo sapiens, UniProt P04629)"}, "MST3": {"molecular_target": "MST3 (Homo sapiens, UniProt Q9Y6E0)", "sequence (Q9Y6E0 whole entry, species assumed)": "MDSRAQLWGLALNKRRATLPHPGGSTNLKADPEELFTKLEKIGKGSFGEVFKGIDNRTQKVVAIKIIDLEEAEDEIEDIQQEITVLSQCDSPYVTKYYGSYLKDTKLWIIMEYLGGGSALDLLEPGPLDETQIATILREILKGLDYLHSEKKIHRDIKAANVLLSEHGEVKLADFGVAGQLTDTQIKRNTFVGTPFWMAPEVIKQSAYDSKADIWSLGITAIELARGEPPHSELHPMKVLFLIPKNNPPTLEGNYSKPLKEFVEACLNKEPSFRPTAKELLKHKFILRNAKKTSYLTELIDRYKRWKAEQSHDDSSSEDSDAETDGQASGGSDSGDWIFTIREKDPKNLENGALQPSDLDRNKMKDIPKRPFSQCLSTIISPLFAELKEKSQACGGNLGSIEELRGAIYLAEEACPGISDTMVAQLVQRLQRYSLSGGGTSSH"}, "LKB1": {"molecular_target": "T1, LKB1 (Homo sapiens, UniProt Q15831)", "T1 sequence (Q15831 1-433)": "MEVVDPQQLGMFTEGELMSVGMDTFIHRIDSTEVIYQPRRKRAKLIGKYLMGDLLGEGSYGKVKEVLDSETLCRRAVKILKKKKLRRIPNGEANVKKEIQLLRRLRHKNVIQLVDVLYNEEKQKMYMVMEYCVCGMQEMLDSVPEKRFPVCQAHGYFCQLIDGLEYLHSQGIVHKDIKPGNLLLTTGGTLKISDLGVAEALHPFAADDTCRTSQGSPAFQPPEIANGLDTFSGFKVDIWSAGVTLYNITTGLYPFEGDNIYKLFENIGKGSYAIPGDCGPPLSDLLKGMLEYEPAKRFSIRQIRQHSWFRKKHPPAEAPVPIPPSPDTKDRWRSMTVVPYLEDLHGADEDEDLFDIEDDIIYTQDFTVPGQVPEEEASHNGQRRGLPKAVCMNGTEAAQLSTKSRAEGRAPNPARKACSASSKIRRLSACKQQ", "T1 sequence (Q7RTN6 1-431 partner)": "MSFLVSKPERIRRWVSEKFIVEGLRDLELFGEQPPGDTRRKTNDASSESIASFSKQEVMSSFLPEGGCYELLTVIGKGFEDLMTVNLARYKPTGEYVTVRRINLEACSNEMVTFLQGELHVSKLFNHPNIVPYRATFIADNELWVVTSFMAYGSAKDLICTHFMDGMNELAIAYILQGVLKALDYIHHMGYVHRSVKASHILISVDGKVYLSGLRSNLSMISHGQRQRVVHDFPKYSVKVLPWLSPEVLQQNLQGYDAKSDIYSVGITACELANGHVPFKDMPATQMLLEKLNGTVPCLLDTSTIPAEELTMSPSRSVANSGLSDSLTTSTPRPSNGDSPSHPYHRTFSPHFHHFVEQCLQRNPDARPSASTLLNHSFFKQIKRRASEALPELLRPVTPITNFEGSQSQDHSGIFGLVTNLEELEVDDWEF", "T1 sequence (Q9Y376 1-341 partner)": "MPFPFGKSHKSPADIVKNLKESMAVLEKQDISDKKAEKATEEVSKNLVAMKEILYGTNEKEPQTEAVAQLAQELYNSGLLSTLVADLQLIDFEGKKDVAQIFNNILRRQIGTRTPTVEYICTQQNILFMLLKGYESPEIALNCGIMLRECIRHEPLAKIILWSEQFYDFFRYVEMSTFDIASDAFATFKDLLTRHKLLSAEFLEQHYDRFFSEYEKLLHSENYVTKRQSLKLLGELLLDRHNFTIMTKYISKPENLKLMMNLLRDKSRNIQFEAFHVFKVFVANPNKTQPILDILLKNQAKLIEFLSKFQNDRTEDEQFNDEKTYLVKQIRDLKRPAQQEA"}, "IRAK1": {"molecular_target": "IRAK1 (Homo sapiens, UniProt P51617)"}, "SIK2": {"molecular_target": "SIK2 (Homo sapiens, UniProt Q9H0K1)"}, "CK1δ": {"molecular_target": "CK1δ (Homo sapiens, UniProt P48730)", "sequence (P48730 whole entry)": "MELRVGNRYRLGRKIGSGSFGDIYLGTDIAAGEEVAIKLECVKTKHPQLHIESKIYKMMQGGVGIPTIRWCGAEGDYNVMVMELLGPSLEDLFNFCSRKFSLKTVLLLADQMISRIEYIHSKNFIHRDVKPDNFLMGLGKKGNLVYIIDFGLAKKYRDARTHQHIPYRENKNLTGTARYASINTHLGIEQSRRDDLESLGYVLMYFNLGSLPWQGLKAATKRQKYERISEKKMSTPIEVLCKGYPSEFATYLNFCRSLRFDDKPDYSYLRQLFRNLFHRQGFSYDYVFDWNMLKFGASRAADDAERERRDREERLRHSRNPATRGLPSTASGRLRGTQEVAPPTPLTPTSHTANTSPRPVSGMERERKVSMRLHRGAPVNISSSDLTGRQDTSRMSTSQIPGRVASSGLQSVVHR"}, "SmMLCK": {"molecular_target": "SmMLCK (Homo sapiens, UniProt Q15746)"}, "ERK5": {"molecular_target": "ERK5 (Homo sapiens, UniProt Q13164)"}, "PLK1": {"molecular_target": "PLK1 (Homo sapiens, UniProt P53350)", "sequence (P53350 whole entry, species assumed)": "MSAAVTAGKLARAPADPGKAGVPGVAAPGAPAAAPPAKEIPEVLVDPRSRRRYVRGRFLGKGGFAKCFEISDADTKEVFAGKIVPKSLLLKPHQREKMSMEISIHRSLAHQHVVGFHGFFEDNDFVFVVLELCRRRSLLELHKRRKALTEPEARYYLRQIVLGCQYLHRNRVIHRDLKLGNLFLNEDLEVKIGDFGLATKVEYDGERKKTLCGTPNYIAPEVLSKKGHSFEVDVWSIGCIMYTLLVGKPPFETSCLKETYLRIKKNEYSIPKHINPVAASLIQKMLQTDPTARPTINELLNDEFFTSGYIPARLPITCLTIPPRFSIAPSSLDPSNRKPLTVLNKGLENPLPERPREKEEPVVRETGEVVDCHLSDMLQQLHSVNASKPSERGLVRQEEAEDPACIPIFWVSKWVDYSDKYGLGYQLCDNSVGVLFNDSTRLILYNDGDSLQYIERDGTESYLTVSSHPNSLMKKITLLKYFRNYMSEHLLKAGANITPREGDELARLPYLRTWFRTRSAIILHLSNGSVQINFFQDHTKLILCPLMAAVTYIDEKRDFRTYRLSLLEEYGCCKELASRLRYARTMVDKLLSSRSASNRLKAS"}, "p38d MAPK": {"molecular_target": "T2, p38d MAPK (Homo sapiens, UniProt O15264)", "T2 sequence (O15264 1-365)": "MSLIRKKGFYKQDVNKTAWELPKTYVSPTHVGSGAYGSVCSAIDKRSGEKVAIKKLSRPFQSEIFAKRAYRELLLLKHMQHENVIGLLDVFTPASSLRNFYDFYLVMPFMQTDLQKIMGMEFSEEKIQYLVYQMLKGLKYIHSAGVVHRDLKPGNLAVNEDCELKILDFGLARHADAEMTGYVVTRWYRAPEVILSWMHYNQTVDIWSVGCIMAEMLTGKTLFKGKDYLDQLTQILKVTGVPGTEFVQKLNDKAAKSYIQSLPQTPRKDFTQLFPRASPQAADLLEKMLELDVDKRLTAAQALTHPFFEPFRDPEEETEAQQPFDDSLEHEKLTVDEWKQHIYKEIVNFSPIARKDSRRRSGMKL"}, "TIE2": {"molecular_target": "TIE2 (Homo sapiens, UniProt Q02763)", "sequence (Q02763 23-1124, species assumed)": "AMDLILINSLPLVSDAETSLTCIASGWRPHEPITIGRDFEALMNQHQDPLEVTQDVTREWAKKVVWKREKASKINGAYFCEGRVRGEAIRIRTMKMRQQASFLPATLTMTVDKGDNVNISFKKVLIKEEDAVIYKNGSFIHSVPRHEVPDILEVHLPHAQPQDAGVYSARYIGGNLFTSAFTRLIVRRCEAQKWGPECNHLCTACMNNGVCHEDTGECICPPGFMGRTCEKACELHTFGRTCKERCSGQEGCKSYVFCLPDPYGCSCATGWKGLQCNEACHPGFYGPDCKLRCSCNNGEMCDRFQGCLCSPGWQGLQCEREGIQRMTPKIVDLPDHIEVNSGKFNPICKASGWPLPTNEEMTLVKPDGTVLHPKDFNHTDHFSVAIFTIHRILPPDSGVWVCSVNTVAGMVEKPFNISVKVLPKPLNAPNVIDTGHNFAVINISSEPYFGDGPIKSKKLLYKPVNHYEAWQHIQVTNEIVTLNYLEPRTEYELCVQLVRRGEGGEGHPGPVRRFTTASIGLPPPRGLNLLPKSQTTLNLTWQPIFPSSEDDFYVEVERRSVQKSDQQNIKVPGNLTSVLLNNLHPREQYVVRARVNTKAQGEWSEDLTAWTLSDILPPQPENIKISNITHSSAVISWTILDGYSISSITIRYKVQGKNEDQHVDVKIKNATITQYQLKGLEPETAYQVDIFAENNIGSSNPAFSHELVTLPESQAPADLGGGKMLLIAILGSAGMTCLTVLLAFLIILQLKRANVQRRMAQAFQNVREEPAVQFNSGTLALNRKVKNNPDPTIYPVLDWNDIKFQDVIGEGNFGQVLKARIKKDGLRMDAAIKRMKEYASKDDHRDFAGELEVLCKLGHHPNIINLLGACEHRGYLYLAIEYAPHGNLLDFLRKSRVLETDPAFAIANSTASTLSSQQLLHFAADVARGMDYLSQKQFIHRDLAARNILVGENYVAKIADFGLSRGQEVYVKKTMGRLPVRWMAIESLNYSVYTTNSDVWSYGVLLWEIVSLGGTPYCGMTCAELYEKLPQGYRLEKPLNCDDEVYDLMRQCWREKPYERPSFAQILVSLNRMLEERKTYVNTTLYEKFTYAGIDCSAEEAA"}, "PKCa": {"molecular_target": "PKCa (Homo sapiens, UniProt P17252)"}, "SRPK1": {"molecular_target": "SRPK1 (Homo sapiens, UniProt Q96SB4)", "sequence (Q96SB4 whole entry, species assumed)": "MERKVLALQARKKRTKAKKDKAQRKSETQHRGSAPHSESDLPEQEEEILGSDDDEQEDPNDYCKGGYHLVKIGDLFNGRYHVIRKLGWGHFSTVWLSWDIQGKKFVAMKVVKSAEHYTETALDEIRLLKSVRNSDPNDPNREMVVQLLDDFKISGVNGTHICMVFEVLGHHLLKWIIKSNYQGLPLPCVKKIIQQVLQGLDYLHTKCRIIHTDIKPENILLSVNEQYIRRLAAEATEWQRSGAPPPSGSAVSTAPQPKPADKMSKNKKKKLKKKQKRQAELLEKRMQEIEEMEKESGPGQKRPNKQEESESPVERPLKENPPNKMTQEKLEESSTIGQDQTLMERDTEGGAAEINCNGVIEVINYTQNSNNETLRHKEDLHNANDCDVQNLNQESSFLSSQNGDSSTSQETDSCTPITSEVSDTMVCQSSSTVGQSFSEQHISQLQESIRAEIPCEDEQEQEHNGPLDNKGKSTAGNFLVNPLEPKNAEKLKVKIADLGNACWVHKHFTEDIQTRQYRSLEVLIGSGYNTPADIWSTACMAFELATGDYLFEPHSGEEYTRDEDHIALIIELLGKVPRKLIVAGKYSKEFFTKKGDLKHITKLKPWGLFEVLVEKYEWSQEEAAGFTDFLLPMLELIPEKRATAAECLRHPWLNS"}, "PIM3": {"molecular_target": "PIM3 (Homo sapiens, UniProt Q86V86)"}, "YES1": {"molecular_target": "YES1 (Homo sapiens, UniProt P07947)"}, "MLK3": {"molecular_target": "MLK3 (Homo sapiens, UniProt Q16584)", "sequence (Q16584 whole entry, species assumed)": "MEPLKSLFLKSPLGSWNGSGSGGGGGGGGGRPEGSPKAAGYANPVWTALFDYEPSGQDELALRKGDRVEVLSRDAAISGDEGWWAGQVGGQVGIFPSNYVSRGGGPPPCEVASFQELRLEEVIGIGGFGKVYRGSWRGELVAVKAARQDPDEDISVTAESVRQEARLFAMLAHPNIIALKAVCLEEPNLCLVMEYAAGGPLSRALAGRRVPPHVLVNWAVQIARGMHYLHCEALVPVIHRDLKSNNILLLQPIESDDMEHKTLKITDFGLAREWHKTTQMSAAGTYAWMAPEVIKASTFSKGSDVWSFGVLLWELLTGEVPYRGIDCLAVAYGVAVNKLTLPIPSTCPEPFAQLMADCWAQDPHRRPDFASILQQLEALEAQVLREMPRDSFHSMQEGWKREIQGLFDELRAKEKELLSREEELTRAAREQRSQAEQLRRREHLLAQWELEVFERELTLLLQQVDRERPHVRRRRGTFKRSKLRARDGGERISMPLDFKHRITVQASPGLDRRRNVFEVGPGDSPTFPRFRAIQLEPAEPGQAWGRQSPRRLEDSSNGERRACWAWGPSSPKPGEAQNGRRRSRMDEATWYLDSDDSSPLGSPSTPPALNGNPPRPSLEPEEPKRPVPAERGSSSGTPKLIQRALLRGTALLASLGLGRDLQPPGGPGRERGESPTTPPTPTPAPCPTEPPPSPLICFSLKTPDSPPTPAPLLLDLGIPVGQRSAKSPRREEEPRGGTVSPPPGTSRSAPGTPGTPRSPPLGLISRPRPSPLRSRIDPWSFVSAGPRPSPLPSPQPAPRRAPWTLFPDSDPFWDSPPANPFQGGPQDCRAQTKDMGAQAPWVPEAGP"}, "PAK6": {"molecular_target": "PAK6 (Homo sapiens, UniProt Q9NQU5)", "sequence (Q9NQU5 whole entry, species assumed)": "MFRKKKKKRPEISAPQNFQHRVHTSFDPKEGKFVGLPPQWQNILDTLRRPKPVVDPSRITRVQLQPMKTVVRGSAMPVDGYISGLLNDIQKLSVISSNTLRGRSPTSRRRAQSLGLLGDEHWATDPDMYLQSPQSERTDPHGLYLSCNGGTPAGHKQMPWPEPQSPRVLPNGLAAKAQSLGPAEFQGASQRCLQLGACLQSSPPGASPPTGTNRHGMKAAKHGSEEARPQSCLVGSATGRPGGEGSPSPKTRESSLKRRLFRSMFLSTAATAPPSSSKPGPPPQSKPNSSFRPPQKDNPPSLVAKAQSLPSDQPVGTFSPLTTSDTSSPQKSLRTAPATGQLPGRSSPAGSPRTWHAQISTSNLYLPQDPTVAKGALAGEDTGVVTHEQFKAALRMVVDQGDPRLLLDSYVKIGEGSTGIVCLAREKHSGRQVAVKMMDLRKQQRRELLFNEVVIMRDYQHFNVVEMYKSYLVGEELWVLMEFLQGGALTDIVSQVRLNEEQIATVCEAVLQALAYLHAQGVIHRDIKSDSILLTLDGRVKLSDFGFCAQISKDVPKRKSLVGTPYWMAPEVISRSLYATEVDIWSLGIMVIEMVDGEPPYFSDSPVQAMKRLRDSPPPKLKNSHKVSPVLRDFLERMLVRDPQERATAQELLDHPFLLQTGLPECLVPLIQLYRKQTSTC"}},
  "note": "Where a SMILES comes first, the peptide text is derived from it. [ ]: non-standard residue; d: D form. The star is where a group is joined. X1 = O=C(CCCCCCCn1cnc2c(Br)c(Br)c(Br)c(Br)c21)*",
  "data": [
    {"compound": "NCCCC[C@H](NC(=O)[C@H](CC(=O)O)NC(=O)[C@H](CC(=O)O)NC(=O)[C@H](CC(=O)O)NC(=O)[C@H](CC(=O)O)NC(=O)[C@H](CC(=O)O)NC(=O)[C@@H](CC(=O)O)NC(=O)CCCCCCCn1cnc2c(Br)c(Br)c(Br)c(Br)c21)C(=O)O", "note": "[TBBI-OcA-(D-Asp)-(L-Asp)5-(L-Lys)-OH] (X1-[dD]DDDDDK-OH)", "values": [
      {"measurement": "remaining activity at 1 µM", "setting": "TrkA", "value": 111, "unit": "%"},
      {"measurement": "remaining activity at 1 µM", "setting": "MST3", "value": 100, "unit": "%"},
      {"measurement": "remaining activity at 1 µM", "setting": "LKB1", "value": 96, "unit": "%"},
      {"measurement": "remaining activity at 1 µM", "setting": "IRAK1", "value": 89, "unit": "%"},
      {"measurement": "remaining activity at 1 µM", "setting": "SIK2", "value": 74, "unit": "%"},
      {"measurement": "remaining activity at 1 µM", "setting": "CK1δ", "value": 49, "unit": "%"},
      {"measurement": "remaining activity at 1 µM", "setting": "SmMLCK", "value": 96, "unit": "%"},
      {"measurement": "remaining activity at 1 µM", "setting": "ERK5", "value": 98, "unit": "%"},
      {"measurement": "remaining activity at 1 µM", "setting": "PLK1", "value": 18, "unit": "%"},
      {"measurement": "remaining activity at 1 µM", "setting": "p38d MAPK", "value": 93, "unit": "%"},
      {"measurement": "remaining activity at 1 µM", "setting": "TIE2", "value": 105, "unit": "%"},
      {"measurement": "remaining activity at 1 µM", "setting": "PKCa", "value": 94, "unit": "%"},
      {"measurement": "remaining activity at 1 µM", "setting": "SRPK1", "value": 61, "unit": "%"},
      {"measurement": "remaining activity at 1 µM", "setting": "PIM3", "value": 59, "unit": "%"},
      {"measurement": "remaining activity at 1 µM", "setting": "YES1", "value": 103, "unit": "%"},
      {"measurement": "remaining activity at 1 µM", "setting": "MLK3", "value": 89, "unit": "%"},
      {"measurement": "remaining activity at 1 µM", "setting": "PAK6", "value": 86, "unit": "%"}
    ]}
  ]
}
